According to publication PMC11658694, “Acetylation of the yeast Hsp40 chaperone protein Ydj1 fine-tunes proteostasis and translational fidelity” (PLOS Genetics, 2024):
Where a chain is given by its changes, count along the chain named. Blank lines part the entries; values can stand above or below the binder they belong to.

What was measured:
Ssa1 (purified) [1] = target: T1, Ssa1 (purified) (S. cerevisiae (budding yeast), UniProt P10591 1-642); assay: cell-based or functional assay
Ssa1 (purified) [2] = target: T1, Ssa1 (purified); assay: BLI; biotinylated Ydj1 wild-type or mutant (5 μg/ml, equivalent loading) on streptavidin biosensors, Ssa1 (1 μM) in solution; Octet R4, 23°C; 25 mM Hepes pH 7.5, 50 mM KCl, 2 mM DTT, 5 mM MgCl2, 0.5 mM ATP, 0.02% Tween-20; non-specific binding subtracted; settings: both partners purified

T1 sequence (P10591 whole entry): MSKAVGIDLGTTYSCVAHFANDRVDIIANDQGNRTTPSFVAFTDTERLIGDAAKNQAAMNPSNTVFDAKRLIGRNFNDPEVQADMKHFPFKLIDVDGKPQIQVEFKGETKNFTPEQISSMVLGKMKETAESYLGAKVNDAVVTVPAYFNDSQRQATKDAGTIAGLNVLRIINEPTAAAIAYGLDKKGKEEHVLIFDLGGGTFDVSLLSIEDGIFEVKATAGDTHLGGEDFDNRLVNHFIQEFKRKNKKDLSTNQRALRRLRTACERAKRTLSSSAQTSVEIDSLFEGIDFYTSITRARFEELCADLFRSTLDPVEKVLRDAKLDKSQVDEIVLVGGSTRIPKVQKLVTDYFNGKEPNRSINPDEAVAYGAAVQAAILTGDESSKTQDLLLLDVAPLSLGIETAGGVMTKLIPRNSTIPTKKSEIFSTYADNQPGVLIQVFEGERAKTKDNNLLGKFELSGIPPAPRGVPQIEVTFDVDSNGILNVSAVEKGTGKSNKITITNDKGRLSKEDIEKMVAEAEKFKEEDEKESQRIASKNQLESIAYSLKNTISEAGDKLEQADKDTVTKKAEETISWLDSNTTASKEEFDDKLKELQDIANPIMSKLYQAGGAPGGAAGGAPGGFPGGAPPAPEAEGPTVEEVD

B1: His-tagged Ydj1 6KR (natural protein, S. cerevisiae (budding yeast), UniProt P25491 1-409, looked up)
chain: MVKETKFYDILGVPVTATDVEIRRAYRKCALRYHPDRNPSEEAAERFREASAAYEILSDPEKRDIYDQFGEDGLSGAGGAGGFPGGGFGFGDDIFSQFFGAGGAQRPRGPQRGKDIKHEISASLEELYKGRTAKLALNKQILCKECEGRGGKKGAVKKCTSCNGQGIKFVTRQMGPMIQRFQTECDVCHGTGDIIDPKDRCKSCNGKKVENERKILEVHVEPGMKDGQRIVFKGEADQAPDVIPGDVVFIVSERPHKSFKRDGDDLVYEAEIDLLTAIAGGEFALEHVSGDWLKVGIVPGEVIAPGMRKVIEGKGMPIPKYGGYGNLIIKFTIKFPENHFTSEENLKKLEEILPPRIVPAIPKKATVDECVLADFDPAKYNRTRASRGGANYDSDEEEQGGEGVQCASQ
modifications: biotin (labelled with a 1.5-fold excess of NHS-PEG4-Biotin, for BLI)
- reactivation of chemically denatured luciferase (3 μM Ssa1, 0.3 μM Ydj1), against wild-type (Ssa1 (purified) [1]): ~2 fold

B2: His-tagged Ydj1 K37R (natural protein, S. cerevisiae (budding yeast), UniProt P25491 1-409, looked up)
chain: B1 chain with R23K, R24K, R32K, R46K, R48K
modifications: biotin (labelled with a 1.5-fold excess of NHS-PEG4-Biotin, for BLI)
- reactivation of chemically denatured luciferase (3 μM Ssa1, 0.3 μM Ydj1), against wild-type (Ssa1 (purified) [1]): ~2 fold

B3: His-tagged Ydj1 wild-type (natural protein, S. cerevisiae (budding yeast), UniProt P25491 1-409, looked up)
chain: B1 chain with R23K, R24K, R32K, R37K, R46K, R48K
modifications: biotin (labelled with a 1.5-fold excess of NHS-PEG4-Biotin, for BLI)
notes: Ydj1, yeast Hsp40; YDJ1 gene amplified from yeast genomic DNA, in pRSETA; Methods: 6xHIS-TEV-Ydj1 fusion; A TEV site lies between tag and Ydj1; A fragment lacking the J-domain co-purifies; also called HIS-Ydj1; Ydj1-biotin; source: E. coli Rosetta (DE3), purified (Ni-sepharose, Superdex 200); not shown: His6, N-terminal, kept
- binding result (Ssa1 (purified) [2]): binds

Now from value to binder:

- binding result (Ssa1 (purified) [2]): binds
B4: His-tagged Ydj1 K23Q (natural protein, S. cerevisiae (budding yeast), UniProt P25491 1-409, looked up)
chain: B1 chain with R23Q, R24K, R32K, R37K, R46K, R48K
modifications: biotin (labelled with a 1.5-fold excess of NHS-PEG4-Biotin, for BLI)
notes: Ydj1, yeast Hsp40; Tag end: see m28; source: E. coli Rosetta (DE3), purified (Ni-sepharose, Superdex 200); not shown: His6, N-terminal, kept

- binding result (Ssa1 (purified) [2]): binds
B5: His-tagged Ydj1 K23R (natural protein, S. cerevisiae (budding yeast), UniProt P25491 1-409, looked up)
chain: B1 chain with R24K, R32K, R37K, R46K, R48K
modifications: biotin (labelled with a 1.5-fold excess of NHS-PEG4-Biotin, for BLI)
notes: as for B4
